Source: patent US20260265410A1 (UNIVERSITY OF FLORIDA RESEARCH FOUNDATION, published 2026)

What was measured:
[1] = biological target: T1, human Nectin-2 extracellular domain (amino acid residues 1-360 of human Nectin-2) fused to hFc (human, UniProt Q92692 32-360); assay: SPR, summary table; antigen column hNectin2 ECD
T1 construct: Bought; also called hNectin-2-ECD-hFc; NECTIN2-ECD-hFc; not shown: human Fc (hFc)
T1 sequence: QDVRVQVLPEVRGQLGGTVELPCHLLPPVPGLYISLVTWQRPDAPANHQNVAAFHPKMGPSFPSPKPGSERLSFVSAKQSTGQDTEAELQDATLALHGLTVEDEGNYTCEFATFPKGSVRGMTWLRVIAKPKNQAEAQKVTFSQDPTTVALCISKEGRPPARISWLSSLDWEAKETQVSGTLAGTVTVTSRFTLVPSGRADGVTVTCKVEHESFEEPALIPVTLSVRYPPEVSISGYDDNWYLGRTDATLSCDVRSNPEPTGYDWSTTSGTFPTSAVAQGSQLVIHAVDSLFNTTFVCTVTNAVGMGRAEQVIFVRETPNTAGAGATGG

[2] = biological target: T1, human Nectin-2 extracellular domain …; assay: SPR, Fab on human Nectin-2-ECD-hFc, five concentrations
[3] = biological target: T2, human Nectin-2 on the cell surface (U937 cells) (human, UniProt Q92692 32-538); assay: flow cytometry on whole U937 cells, screen of the 28 clones (Ctrl row = 0); Nectin-2 is named as the antigen on U937 cells only in the later examples
T2 construct: Endogenous Nectin-2 of U937 cells; also called PVRL2; CD112
T2 sequence: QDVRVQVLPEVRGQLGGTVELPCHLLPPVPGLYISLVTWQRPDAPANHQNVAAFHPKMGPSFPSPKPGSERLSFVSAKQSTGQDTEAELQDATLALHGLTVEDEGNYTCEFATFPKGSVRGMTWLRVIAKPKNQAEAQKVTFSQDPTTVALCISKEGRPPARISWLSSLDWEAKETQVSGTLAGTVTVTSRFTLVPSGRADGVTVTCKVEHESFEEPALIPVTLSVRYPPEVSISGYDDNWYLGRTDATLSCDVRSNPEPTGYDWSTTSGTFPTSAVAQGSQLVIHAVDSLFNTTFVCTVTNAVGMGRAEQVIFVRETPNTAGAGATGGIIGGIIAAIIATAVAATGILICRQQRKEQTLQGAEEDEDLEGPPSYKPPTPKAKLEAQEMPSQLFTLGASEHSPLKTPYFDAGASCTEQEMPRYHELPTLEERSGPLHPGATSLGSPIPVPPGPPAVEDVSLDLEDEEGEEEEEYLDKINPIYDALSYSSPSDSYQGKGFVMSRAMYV

- Kd [1]: 67.5 nM
- koff [1]: 0.0077 s⁻¹
- kon [1]: 114000 M⁻¹ s⁻¹
- Kd [2]: 67.5 nM
- flow cytometry binding value (the table prints no name or unit) [3]: 89.3
B1: Fab_350 (Fab, V domains shown)
VH: QEQLEESGGRLVTPGTPLTLTCTASGFSLSSYHMSWVRQAPGKGLEWIGLINTGDSAYYASWAKGRFTISRTSTTVDLRITSPTTEDTATYFCARTFGDGFNLWGPGTLVTISS
VL: SFVLTQPASVQVDLGQTVSLTCTADTLSRSYASWYQQKPGQAPVLLIYRDTSRPSGVPDRFSGSSSGNTATLTISGAQAGDEADYYCATEDSGDSSYQYVFGGGTQLTVTG
notes: Chimeric rabbit/human Fab; also called N350; clone 350
